# In the domain aggregation screens of Martell et al. (2025):
# Test: soluble fraction after stress (log2 fold change); higher = more stays soluble; pooled small domains, quantitative proteomics
# Details: stress: 75 degC
# 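Also: 20 min heating vs room temperature control held 20 min.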
row,Sequence,soluble fraction (log2)
1,HMFDMLGDQIKKYRKEKKMSQEELAIPLNVVRQTVSKWENNLSVPDAELLIRLAEVLEISVAELLGT,-0.378
2,HMFDTVFIVRKTSDKPLDGLRTYLNSIGDSLVIGEDDEAFKVHVHTNHPGKVLEEAITYGALQTVKIENMR,-1.07
3,HMFDTVTIGRKIAELRKAHNMTQFELADALGISFQAVSNWERGASMPDISKLPELAEIFGVTIDEVLGK,-1.5
4,HMFEATGKITGTEVSFRRKPTTDSERILFFDINTEFRVIGINNGWYKGVYQGKTGYVRSDFVEIVGG,-2.05
5,HMFEEPYLATYPVLIDPKLAFNVLDTMLEGLEVKMDQDEETGAISVLAPASIHTKITEYLDALSKQ,-0.0924
6,HMFEERKKDWNLTGLLDDVIRRYIHQLTNDELNEINLEKSSGMPDEEIKNGIKLPLAVMQQRRETWGS,-0.252
7,HMFEQRLRQAMKELRLKQVQVAGLTGKSRGAISQYLSGDRVPPDGVQREMAIALGLEADYFSR,-0.85
8,HMFERFIFTDEVYIRLKKSGLPQTTLRPLLEIHGKSFDHNEINIILSGLIPNQDFERYAQIIKSHSRF,-4.24
9,HMFEYDEIMEQSVPKIAWGSLLTIMKKASSHKEMLWYINETYKNGWSRSMVLNQIAMASYERSLIE,-0.732
10,HMFFDKIIVDFLADGSRIDKYISTLYPDISRTHIQRLIAEQFILVNDSVVKSNYKLSTNDVVLIHIPEA,-3.01
11,HMFFMTMGEKIQLLRKKQNWSQETLAEKLSVSRQAVSLWERDESQPELDKLLKLAKIFSVTTDYLIDDSVT,-3.19
12,HMFGGIEFGWSQLPDGRVEYIIQLDDQAIAALKNGRSLTSSLPPEVQNADRIRIQYGAGPVEKGLLLQ,-0.206
13,HMFIEMDEPEKILHRILNEANGKLELDKIGYRAEWPIGKVLTVLMSLELKGVVQSHPGKVYSL,-0.371
14,HMFIGFLHQLKEAGVPVSIREYLDFLSGLDKGITNLNTNSFYHFARASLVKDERHYDRFDRTFSEFFEGAL,-3
15,HMFIQLSQEEKKVVEGLQQRSKTHLDALALEVGQNISKTAAMLMELEMKGVVRALPGKYYEL,-1.1
16,HMFKEVPVPDVKGMTLEEAKLALEKEGFILGKTEEAESTEVAAGKIISQNLEAGKIAKQGTSVNLVVSKGK,0.454
17,HMFKLPRTIGTFEDSDVVIGAGKFGPYIMHNKKFVSLPKSEDPLTIGLERAIELISAKREQEKQRH,0.265
18,HMFLPFFDNLRKAGVPVSLREFLGFLEGMKAGLATYDIDAFYFLARTTMVKDERNLDKFDRAFSATFKG,-1.02
19,HMFNDGEIAIYTDPRGDAGETQIWKRGKGYYGQNDSFDFEAKDKKELEMKLKRWGYVLIAGSIDE,-0.435
20,HMFNGDPTTRESILASARAEIDQYGIIGLRLSAVAEKAQVSVPLIYKYFEDRDGLLAVVLGDW,-1.21
21,HMFNTWLGEIRSNTGANVRSGPDASAAIVDARPNETVVRVIGQSGNWLQIGDKQFVAQSLVAP,-0.0837
22,HMFPDLTGDELRIVDLLNTANDLQVNIITAKTNLPISRVTSLLFQLEMKGVVKPLAGGMYHLLG,-1.49
23,HMFPELDEEEQKITKLLQAQNDLPANIIAVKTALNIGTTQAKLFSLEMKGVVKPYAGGFYHLL,-2.73
24,HMFPNLTNEEQQVMKVLAKTNDLQINMLSVQSNLPIARLTALLFSMEMKGVVKTLAGGVYHLL,-4.27

row,Sequence,soluble fraction (log2)
1,HMFPNSFSEREKEVVDLLLQAKSNKQIAFSLGITNRTVEYHLGNIFAKLGVSSRSEAILTITNYKNQ,-2.35
2,HMFPQVEVQLIYSYKSDRILNKMLKEFNVVILNQVFKDDILTSFHMNYSLVNQLITKIKSYPDISYKIIN,-1.82
3,HMFPTLNEDEQTIVSALQKINDQPINTLSIHTALPIPRLTSLLFQLEIKGVIKQLAGGTYHVL,-2.84
4,HMFQLSNEAKQQVLGELKRYESKQSAVLPALYIGQKDNKGHITPEVIRELSKVMDIPESQINEVFTFYTM,-0.287
5,HMFQRLPFSFANRYKMVLEYQHPERPPVLYYVEPLKAAAILEVSRVIKSGFTPQAIVSDEFEKKLTEAYQR,-2.76
6,HMFRMTPQRMAILAEVQNAERHLTAAEIYERVRRKYPTIAYGTVYRTLHLLAKHGLIQEFPFGDNASLFDR,-0.159
7,HMFRPRIEPGAKGSYVLEVQKRLAKLGYEHAGFDGVYGPGTERAIMQLQRDKGLPVTGIVDMRTYEALGLF,-0.99
8,HMFRSTLEELKHQISGFLKANQSQEFTAQNLADGLRMTSIAEYKRVVNAMDALVRDGELTFDAGKYQYNPN,-0.234
9,HMFSMKDFGQRLRQLRKERGLTQGDLARLAKIDIMQVSRYERGLGLPSLETAIALARVLETSTDLLFLG,-3.52
10,HMFSPSDEDLELAHRQIRAFEEVEANGKSIAVVDGRIVESLHIVTARDTLEKAKAITALAEEM,0.000997
11,HMFSVVDKITLQEELKKLSKKEQLLIQLRYYDELNQEEIAKIFHVSQVQISRMEKKIIEKLKKQF,-3.44
12,HMFTDEELEHIRSALIQAGIRLSKELGLQKMSVEKLTAAVGIAKGSFYMFFGSKEDFILEVAEYTGAQ,-0.976
13,HMFTEEEMTKLRHELILAGIRLSRELGLQRMSVEKITSAVGIAKGSFYIFFDSKEDFILEIADHANRE,-1.1
14,HMFTEEQMDWLRLIKDHIVASLSILPEDLELTPFDRKGGLLGFYDAFGDEYEKILQEMNEELVA,-0.567
15,HMFTEIMAERNALIQAIQQNLPPQHIQSILSKKNKFRLEDLTNEELRDVWQWILNQRQAQQHQQQ,-0.0958
16,HMFTGELESRVFELNYVDGLVASAALAGVLTDKGSATPIASRAGGENDMLLVVDRIASYSQIEKIITQLD,0.0191
17,HMFTKSNLEKLSNSELILKAIDSGNYSKIEFGGSEALNPDVPSYKKDLKNREELIEILSEMGM,0.148
18,HMFVNADEIAKGLSPFNPSSVAIEAGRLMLKRIGELLSAGVSFSVETTLSTRSYINLIQQAQNQGYSVSL,0.822
19,HMFVVVPDLIGKTINQFEEDLSELNLKYVVSDSGNFNPEFKINAVLDQSPKANSKVKDGRKIYLTLNAS,-0.434
20,HMFWRKIDFYGLNLSTYRNIINIGSDYNYIYLDLGNIYKILNPITGKIIEEQDLVMNIDNINWSS,0.283
21,HMFYNDLINFDVFRDSRKIGKIENINSRLPQPVFEIMYDSRIVLIPIHEDFIRKIDKVNNIIYLDIPDGLL,-2.99
22,HMGAAFITSSKDNAINIRQSANTDSKVIETVTNGQILESNEKSGEWHKVTYYDNDIKKSFTGYVHEGQLK,0.0505
23,HMGAAIEYGDRGNTVLQAQRLLIARGYMAGSADGIYGRQMEQAVKRFQKEQGLPESGVVDRRTLQVLIRSR,-1.63
24,HMGAARRFEMSEGGSQKFWEVAVEGPALTVRFGKLGTAGTTQTKTLASAEAAAKEADKLVREKTKKGYAP,-0.199

row,Sequence,soluble fraction (log2)
1,HMGAATQADIARVQELLNRLGYDAGSPDGLMGPRTRDAILEYQLTEGLETTGTVTRETLASLEARL,0.0156
2,HMGAGFREAIPPALDGERIDRVVSLLAYVSRNRAAGALAAGSVSVDGEVVFQRSRRVREGEELVVTGFERE,-1.01
3,HMGAITGLQSRVAFLKGQGTITDAEAKTAMAFLPDPTDSKEVKIAKIGQAREYIMSLIENRA,-0.267
4,HMGAIVTGTVVEIRSDVVIVNAGLKSEGVVPIEQFRNEAGELEVSVGDEVKVALDALEDGFGETRLS,-0.347
5,HMGAIVTVPDLAGRPQPGAEAELRRSGLVPKVRTSYSLTGTRGTVISQTPPAGSRVREGAEVEVVVSRGLN,0.00469
6,HMGAKLTTAQGGTLKVLVKGKKTHTPTIELRDKDPDFPNAKVVQPDINKGNKQIAHGINGVL,0.686
7,HMGALAITPDFVGQTREEAERFLRDLDLSFDIGGKGDRILRQEPVAGQRMNLDQPMKLWVGSMNA,0.245
8,HMGANAVAAFTARVRTGPSTGYPVRISVPQGRQVRVISGPYGGWYRVSYQGLTGYTYGGLLRQG,-0.673
9,HMGAPAISYSKFLEQVDRKNVASVTIYKDGRIDGVMTSGSRFATESPSDPGLVGDLLKAGVEIRAKPP,0.177
10,HMGAPVIYELTAESAAGQRIDKYLSGQLADLSRSYLQKLLKDGGVEVNKKPVKSNYKLSEGDQIRLEVPEA,0.0457
11,HMGAQINSPISGTILKYLVKNGDKITKDQPLVNIESMKMENTIKSDKEGIVNNINFKIGDSVNTADTLLTL,0.0698
12,HMGAQKITIPDFSNQEATQVYAELKNMGLEYTESRMNHPSIASGYVIKTEPTKGSEVKAGTTVTVYVSLG,-0.112
13,HMGARHPLPYPFARAHGLLLEADGERSTLWASTNVSPAALSEVMRKYAVDVIEEEPPETLSQRIAAAYAA,-0.155
14,HMGASFITSSKDNAINIRESATTDSKVIETIKNGEILESTEKSGDWHKVTYYNSEIKKSFTGYIHNSQLK,0.426
15,HMGASLVIVPGAGFLRVSASSQTRLDVYSITGMRVRSVDFEPGTTEIELPAGFYIAGGRKFFV,-2.42
16,HMGAYITYEVKPGDTLWDIANKFPGVSADNIKTWNKVDELIKAGERLKINTQTITDYSPDKYPS,-0.242
17,HMGDADDLSRELLQQGLSLKEAVADFERRYLQQAMQRHSSIASVSEALDVHFSTLWRKLVKYNLV,-0.104
18,HMGDADDLTRIKGIGPKLSKTLNELGIYHFRQIAGWQSDEADWVDDYLSFKGRVMREQWIEQAQKFAS,-0.475
19,HMGDAIPVPDVSGFSEDQAMNNLRKVGLRPKATYVADDNTAKGYVTGTSPAKNIEVAPDSEVIVYVSSGP,0.697
20,HMGDAPLITVDKRTIKVNGAKAQIQVYDTTGRLVKNVSPAGKLTLIEMAKPGIFIVHTQSMSFKVVL,-0.351
21,HMGDAVYSKVKDLVNTYNALAKQTGKSDLVSISQSRTWMVNDTKAHEVQWNKIGITIEDDQTLTI,0.0968
22,HMGDLDLVTFGQRLRHLRRSRNMTLSELGERVGRAPSQLSLLENGKREPKLSLLTALAKALDVSVEEL,-1.05
